First the molecules themselves.
B1: Mothers against decapentaplegic homolog 4 (Homo sapiens), Q13485 (parent)
chain: MDNMSITNTPTSNDACLSIVHSLMCHRQGGESETFAKRAIESLVKKLKEKKDELDSLITAITTNGAHPSKCVTIQRTLDGRLQVAGRKGFPHVIYARLWRWPDLHKNELKHVKYCQYAFDLKCDSVCVNPYHYERVVSPGIDLSGLTLQSNAPSSMMVKDEYVHDFEGQPSLSTEGHSIQTIQHPPSNRASTETYSTPALLAPSESNATSTANFPNIPVASTSQPASILGGSHSEGLLQIASGPQPGQQQNGFTGQPATYHHNSTTTWTGSRTAPYTPNLPHHQNGHLQHHPPMPPHPGHYWPVHNELAFQPPISNHPAPEYWCSIAYFEMDVQVGETFKVPSSCPIVTVDGYVDPSGGDRFCLGQLSNVHRTEAIERARLHIGKGVQLECKGEGDVWVRCLSDHAVFVQSYYLDREAGRAPGDAVHKIYPSAYIKVFDLRQCHRQMQQQAATAQAAAAAQAAAVAGNIPGPGSVGGIAPAISLSAAAGIGVDDLRRLCILRMSFVKGWGPDYPRQSIKETPCWIEIHLHRALQLLDEVLHTMPIADPQPLD
partner: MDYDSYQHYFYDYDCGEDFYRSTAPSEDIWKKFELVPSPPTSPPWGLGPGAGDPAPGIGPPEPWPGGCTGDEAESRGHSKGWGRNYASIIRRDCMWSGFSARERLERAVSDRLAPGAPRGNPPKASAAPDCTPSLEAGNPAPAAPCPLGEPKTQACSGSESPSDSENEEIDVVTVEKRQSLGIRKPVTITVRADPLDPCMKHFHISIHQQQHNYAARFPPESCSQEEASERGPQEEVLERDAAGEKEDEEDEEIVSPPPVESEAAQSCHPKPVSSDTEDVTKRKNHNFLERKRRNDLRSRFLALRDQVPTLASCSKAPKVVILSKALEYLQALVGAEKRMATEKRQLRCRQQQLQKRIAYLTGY
B2: Mothers against decapentaplegic homolog 4 (Homo sapiens), Q13485 (parent)
chain: B1 chain
partner: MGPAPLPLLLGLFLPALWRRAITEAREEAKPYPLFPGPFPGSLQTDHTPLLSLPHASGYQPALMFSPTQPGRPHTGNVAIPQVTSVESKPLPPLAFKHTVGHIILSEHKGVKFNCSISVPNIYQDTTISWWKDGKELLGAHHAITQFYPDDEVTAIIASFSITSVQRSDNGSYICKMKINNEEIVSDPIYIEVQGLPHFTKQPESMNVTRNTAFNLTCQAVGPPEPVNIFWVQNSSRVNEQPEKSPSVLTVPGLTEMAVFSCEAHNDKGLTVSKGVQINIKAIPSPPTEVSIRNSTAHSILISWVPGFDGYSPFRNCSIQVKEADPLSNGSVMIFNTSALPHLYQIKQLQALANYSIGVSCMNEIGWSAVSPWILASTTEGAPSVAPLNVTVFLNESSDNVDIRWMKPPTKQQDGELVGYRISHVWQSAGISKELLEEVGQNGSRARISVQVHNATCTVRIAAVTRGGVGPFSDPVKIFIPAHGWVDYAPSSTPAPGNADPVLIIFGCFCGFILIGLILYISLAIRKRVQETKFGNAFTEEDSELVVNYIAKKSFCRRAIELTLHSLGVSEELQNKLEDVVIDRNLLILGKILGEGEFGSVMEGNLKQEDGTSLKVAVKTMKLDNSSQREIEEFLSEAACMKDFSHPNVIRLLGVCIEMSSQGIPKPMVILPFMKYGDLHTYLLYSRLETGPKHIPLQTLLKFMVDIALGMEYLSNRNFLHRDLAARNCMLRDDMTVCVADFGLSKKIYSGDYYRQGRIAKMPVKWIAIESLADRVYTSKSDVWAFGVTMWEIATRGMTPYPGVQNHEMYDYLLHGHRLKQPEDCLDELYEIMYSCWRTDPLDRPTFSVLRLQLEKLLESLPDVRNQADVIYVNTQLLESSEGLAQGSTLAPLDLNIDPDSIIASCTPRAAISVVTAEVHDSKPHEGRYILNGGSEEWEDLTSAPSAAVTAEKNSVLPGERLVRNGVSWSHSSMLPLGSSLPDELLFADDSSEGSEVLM
B3: Mothers against decapentaplegic homolog 4 (Homo sapiens), Q13485 (parent)
chain: B1 chain
partner: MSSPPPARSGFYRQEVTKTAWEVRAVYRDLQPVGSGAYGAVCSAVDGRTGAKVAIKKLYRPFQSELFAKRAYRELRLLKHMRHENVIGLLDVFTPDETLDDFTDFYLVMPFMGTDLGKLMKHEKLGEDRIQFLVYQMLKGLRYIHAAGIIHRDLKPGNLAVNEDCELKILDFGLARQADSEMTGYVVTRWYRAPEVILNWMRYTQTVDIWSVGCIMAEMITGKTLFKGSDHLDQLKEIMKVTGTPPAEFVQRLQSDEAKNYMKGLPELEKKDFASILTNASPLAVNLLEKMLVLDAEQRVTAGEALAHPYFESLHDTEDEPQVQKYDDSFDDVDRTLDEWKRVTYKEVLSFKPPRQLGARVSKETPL
B4: Mothers against decapentaplegic homolog 4 (Homo sapiens), Q13485 (parent)
chain: B1 chain
partner: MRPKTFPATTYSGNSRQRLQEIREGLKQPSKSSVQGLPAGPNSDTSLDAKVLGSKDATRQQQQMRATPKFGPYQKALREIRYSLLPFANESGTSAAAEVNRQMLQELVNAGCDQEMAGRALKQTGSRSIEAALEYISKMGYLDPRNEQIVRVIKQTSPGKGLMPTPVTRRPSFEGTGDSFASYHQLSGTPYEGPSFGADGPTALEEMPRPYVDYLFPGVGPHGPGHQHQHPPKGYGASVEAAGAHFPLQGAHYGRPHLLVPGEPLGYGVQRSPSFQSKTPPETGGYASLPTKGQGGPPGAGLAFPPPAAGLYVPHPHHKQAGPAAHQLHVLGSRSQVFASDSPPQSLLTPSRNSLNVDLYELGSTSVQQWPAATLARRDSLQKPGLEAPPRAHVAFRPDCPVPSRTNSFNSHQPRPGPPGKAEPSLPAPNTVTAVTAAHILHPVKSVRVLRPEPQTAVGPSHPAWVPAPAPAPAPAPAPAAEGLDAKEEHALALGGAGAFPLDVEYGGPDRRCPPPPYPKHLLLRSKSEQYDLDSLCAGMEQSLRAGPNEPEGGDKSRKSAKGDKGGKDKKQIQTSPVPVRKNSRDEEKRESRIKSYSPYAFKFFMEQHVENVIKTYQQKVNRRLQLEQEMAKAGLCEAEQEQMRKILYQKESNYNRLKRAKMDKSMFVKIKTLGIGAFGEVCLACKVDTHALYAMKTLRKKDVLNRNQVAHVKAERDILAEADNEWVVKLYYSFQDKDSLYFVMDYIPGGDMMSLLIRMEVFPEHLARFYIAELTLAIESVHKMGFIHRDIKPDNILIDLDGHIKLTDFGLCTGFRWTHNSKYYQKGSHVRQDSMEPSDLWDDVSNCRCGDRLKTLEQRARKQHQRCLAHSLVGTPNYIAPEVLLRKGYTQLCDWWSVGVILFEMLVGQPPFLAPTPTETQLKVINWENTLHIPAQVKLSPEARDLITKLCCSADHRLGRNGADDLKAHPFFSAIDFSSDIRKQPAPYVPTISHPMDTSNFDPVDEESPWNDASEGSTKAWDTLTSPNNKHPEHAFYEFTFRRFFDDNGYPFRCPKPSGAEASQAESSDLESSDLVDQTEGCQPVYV

In one test the parent is B1. Conditions: with mycl_human MYCL.
As to G386D, the “effect of a mutation on the interaction” value is given as “with no effect”.

In another test the parent is B1. Conditions: with mycl_human MYCL. The source holds these as a separate data set.
With R361C, the “effect of a mutation on the interaction” value was “with no effect”.

The next test covers variants of B1. The note with it: with mycl_human MYCL. The source holds these as a separate data set.
Take R361H: the “effect of a mutation on the interaction” value is reported as “with no effect”.

Variants of B2 are the subject of a further test. Conditions: with mertk_human MERTK.
Regarding D351H, the “effect of a mutation on the interaction” value is given as “with no effect”.

Another test covers variants of B2. Conditions: with mertk_human MERTK. The source holds these as a separate data set.
With G386D, the “effect of a mutation on the interaction” value is given as “with no effect”.

Variants of B2 are the subject of the next test. Conditions: with mertk_human MERTK. The source holds these as a separate data set.
Consider R361H, for which the “effect of a mutation on the interaction” value is listed as “with no effect”.

Variants of B2 are the subject of a further test. Conditions: with mertk_human MERTK. The source holds these as a separate data set.
On to R361C, for which the “effect of a mutation on the interaction” value was “with no effect”.

In the next test the parent is B3. Conditions: with mk12_human MAPK12, P53778.
Turning to D351H, the “effect of a mutation on the interaction” value is “with no effect”.

A further test covers variants of B3. Conditions: with mk12_human MAPK12, P53778. The source holds these as a separate data set.
For the variant R361H, the “effect of a mutation on the interaction” value was “with no effect”.

Variants of B3 are the subject of a further test. The note with it: with mk12_human MAPK12, P53778. This is another data set of the same source.
Consider R361C, for which the “effect of a mutation on the interaction” value is “with no effect”.

The variants in another test derive from B3. The note with it: with mk12_human MAPK12, P53778. The source holds these as a separate data set.
For G386D, the “effect of a mutation on the interaction” value is listed as “with no effect”.

The variants in the next test derive from B4. Conditions: with lats2_human LATS2, Q9NRM7.
For the variant D351H, the “effect of a mutation on the interaction” value is reported as “with no effect”.
